Test results: publication doi:10.1101/2024.05.31.596772

Molecular target: microtubules (pig (purified from porcine brain))
Assay: co-sedimentation

Sequence of CKK dimer (mRFP1-FKBP-CKK and mEGFP-FRB-CKK with rapamycin) (Q80VC9 whole entry, looked up, one chain of several): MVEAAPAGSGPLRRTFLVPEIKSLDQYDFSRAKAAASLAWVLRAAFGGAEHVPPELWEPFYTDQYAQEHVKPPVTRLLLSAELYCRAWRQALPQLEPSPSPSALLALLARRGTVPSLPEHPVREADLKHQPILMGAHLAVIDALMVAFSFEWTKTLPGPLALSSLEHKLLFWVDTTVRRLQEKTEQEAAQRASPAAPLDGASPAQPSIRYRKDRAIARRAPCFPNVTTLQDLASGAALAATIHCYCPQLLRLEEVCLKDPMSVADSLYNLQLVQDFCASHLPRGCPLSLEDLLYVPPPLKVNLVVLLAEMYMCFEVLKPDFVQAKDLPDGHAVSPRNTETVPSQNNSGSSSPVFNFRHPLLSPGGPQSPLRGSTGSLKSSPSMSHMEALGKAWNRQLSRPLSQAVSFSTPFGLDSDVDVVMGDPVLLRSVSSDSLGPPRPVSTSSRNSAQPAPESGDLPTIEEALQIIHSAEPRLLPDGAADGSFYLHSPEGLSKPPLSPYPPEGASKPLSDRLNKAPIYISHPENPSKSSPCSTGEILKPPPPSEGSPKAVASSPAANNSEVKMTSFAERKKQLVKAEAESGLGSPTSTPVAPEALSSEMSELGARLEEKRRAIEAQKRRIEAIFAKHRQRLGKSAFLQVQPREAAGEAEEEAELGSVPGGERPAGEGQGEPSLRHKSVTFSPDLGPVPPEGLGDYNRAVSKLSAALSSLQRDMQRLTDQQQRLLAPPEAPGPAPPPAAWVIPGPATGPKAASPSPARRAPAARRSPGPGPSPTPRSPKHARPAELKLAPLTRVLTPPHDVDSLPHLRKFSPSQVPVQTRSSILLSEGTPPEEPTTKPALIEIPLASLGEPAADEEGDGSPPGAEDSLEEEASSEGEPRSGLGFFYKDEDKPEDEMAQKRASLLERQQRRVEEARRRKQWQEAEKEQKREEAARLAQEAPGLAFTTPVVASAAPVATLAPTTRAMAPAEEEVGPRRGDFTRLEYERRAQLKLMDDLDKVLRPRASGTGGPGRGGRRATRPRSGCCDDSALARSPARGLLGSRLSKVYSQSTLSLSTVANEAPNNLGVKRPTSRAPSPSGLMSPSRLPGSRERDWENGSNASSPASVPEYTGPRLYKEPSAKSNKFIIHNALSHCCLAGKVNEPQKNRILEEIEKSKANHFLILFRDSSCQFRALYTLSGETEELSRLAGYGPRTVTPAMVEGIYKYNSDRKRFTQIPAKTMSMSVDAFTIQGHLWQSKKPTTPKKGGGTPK

Kd: 147 nM
Substance: CKK dimer (mRFP1-FKBP-CKK and mEGFP-FRB-CKK with rapamycin) (from UniProt Q80VC9 1112-1246; Q80VC9 1112-1246) (complex)
